Results from patent US20170028070A1.

Tested on: HER2 epitope peptide
Conditions: 5'-H2N-(CH2)6; doxorubicin intercalated, Dox:aptamer 10:1; apparent Kd from doxorubicin fluorescence release upon epitope binding; Dox molar ratio 10

Q: How did the Kd turn out when “AACCGCCCAAATCCCTAAGAGTCTGCACTTGTCATTTTGTATATGTATTTGGTTTTTGGCTCTCACAGACACACTACACACGCACA [Dox-loaded anti-HER2 aptamer]” was run?
A: 50 nM
